Test results: patent publication US20220235132A1 (ANAPTYSBIO, published 2022)
Several values for one entry are separate records, joined by “and”; a condition that tells them apart may be missing. Equal entries are not always repeated.

Tests used:
[1] = biological target: T1, human PD-1 expressed on cells (human, UniProt Q15116 25-288); test: cell-based or functional assay
[2] = biological target: T2, cynomolgus monkey PD-1 expressed on cells (cynomolgus monkey, UniProt B0LAJ3 25-288); test: flow cytometry, HEK 293 cells stably expressing cynomolgus monkey PD-1
T2 construct: also called cynomolgus PD-1; PD-1 on stably transfected HEK 293 cells
Protocol: HEK 293 cells were stably transfected to express either human PD-1 or cynomolgus monkey PD-1. Cells were harvested by Accutase™ treatment (Innovative Cell Technologies, San Diego, Calif.), the cells expressing cynomolgus monkey PD-1 were treated with the lipophilic fluorescent dye Vybrant® DiD (ThermoFisher Scientific, Carlsbad, Calif.), and then mixed with an equal number of unlabeled HEK 293 cells expressing human PD-1. Cells (2×10⁵ total per sample) were stained with the indicated concentrations of each antibody for 40 min at 4° C. with gentle shaking, centrifuged and washed once. Cells were fixed in 2% paraformaldehyde in phosphate-buffered saline (PBS) for 10 min at room temperature, washed, and antibodies detected with Phycoerythrin (PE)-conjugated goat anti-human kappa (Southern Biotechnology, Birmingham, Ala.) for 15 min at 4° C. with gentle shaking. Cells were washed, resuspended, and bound antibody fluorescence quantified on a BD FACSArray™ (BD Biosciences, San Jose, Calif.). Data were analyzed for median fluorescence intensity (MFI) using FlowJo® analysis software (FlowJo, LLC). ECso values were determined in GraphPad Prism 5.0 (GraphPad Software) using a log(agonist) vs. response—Variable slope (4 parameters) curve fit. The results are shown in FIGS. 1 and 2, and the ECso values are set forth in Table 2 (human) and Table 3 (cynomolgus monkey). […]

[3] = biological target: T3, cynomolgus PD-1 (as used in KinExA) (cynomolgus monkey); test: KinExA (kinetic exclusion assay)
T3 construct: also called Cynomolgus PD-1 KD (KinExA)

[4] = biological target: T4, biotinylated cynomolgus monkey PD-1 extracellular domain monomer (cynomolgus monkey, UniProt B0LAJ3 25-170, Biotinylated; neither the site nor the method is stated, and the letters do not carry it.); test: SPR (Biacore T200), biotinylated PD-1 ECD monomer captured on SA chip
T4 construct: Captured on a streptavidin sensor chip for SPR; also called Cynomolgus PD-1 (SPR)

[5] = biological target: T4, biotinylated cynomolgus monkey PD-1 …; test: SPR screening (method taken from paragraph 169), N = 2
Protocol: KD measurements for screening by Surface Plasmon Resonance (SPR) were performed on a Biacore T200 (GE Healthcare Life Sciences, Pittsburgh, Pa.), and kinetic constants were fit globally using a 1:1 binding model. Biotinylated human or cynomolgus monkey PD-1 extracellular domain monomer was captured at a 1 nM concentration on a Biacore Sensor chip SA (GE Healthcare Life Sciences, Pittsburgh, Pa.), with a carboxymethylated dextran surface pre-immobilized with streptavidin. The captured antigen level was targeted to yield a low response to prevent avidity effects on the dissociation rate. Tm measurements were determined by fluorescence-based thermal shift and differential scanning calorimetry.

[6] = biological target: T1, human PD-1 expressed on cells; test: flow cytometry, 2-day anti-CD3/anti-CD28 activated human CD4+ T cells
Protocol: Primary human peripheral blood CD4⁺ T cells were prepared using magnetic bead separation (CD4⁺ T Cell Isolation Kit, Miltenyi Biotec, Auburn, Calif.) of peripheral blood mononuclear cells (PBMCs) and activated for 48 hours with plastic-coated anti-CD3 and anti-CD28 in 6-well plates. Cells (1×10⁵ per sample) were washed and stained in V-bottom 96-well plates with the indicated concentrations of each antibody for 30 min at 4° C. with gentle shaking, centrifuged and washed once. Cells were fixed in 4% paraformaldehyde in PBS for 10 min at room temperature, washed, and antibodies detected with Alexa Fluor 647-conjugated F(ab′)2 goat anti-human IgG Fc (Jackson ImmunoResearch, West Grove, Pa.) for 10 min at 4° C. Cells were washed, resuspended, and bound antibody fluorescence quantified on a BD FACSArray™ (BD Biosciences, San Jose, Calif.). Data were analyzed for geometric mean fluorescence intensity (MFI) using FlowJo® analysis software (FlowJo, LLC). ECso values were determined in GraphPad Prism 7.02 (GraphPad Software) using a log(agonist) vs. response—Variable slope (4 parameters) curve fit.

[7] = biological target: T5, biotinylated human PD-1 extracellular domain monomer (human, UniProt Q15116 25-170, biotinylated (site not stated)); test: SPR (Biacore T200), biotinylated PD-1 ECD monomer captured on SA chip
T5 construct: extracellular domain; Captured on a streptavidin sensor chip for SPR; also called Human PD-1 (SPR)
T5 sequence (Q15116 25-170): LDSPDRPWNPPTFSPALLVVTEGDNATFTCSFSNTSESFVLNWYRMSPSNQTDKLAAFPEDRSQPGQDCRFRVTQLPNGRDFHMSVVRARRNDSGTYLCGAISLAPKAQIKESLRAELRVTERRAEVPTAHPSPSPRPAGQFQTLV

T4 sequence (B0LAJ3 entry or part of it limits assumed): as the sequence (Q15116 25-170) above, with D2E, P10A, V19L, T35A, Q75R, T144A counted along it
T2 sequence (B0LAJ3 entry or part of it limits assumed): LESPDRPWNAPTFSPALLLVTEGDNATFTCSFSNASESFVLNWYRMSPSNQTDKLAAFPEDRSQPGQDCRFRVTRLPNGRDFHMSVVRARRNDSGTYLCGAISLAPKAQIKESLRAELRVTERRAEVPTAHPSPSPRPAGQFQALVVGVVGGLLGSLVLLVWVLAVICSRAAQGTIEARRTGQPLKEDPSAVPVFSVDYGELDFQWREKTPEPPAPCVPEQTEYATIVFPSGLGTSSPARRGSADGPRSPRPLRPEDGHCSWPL
T1 sequence (Q15116 25-288): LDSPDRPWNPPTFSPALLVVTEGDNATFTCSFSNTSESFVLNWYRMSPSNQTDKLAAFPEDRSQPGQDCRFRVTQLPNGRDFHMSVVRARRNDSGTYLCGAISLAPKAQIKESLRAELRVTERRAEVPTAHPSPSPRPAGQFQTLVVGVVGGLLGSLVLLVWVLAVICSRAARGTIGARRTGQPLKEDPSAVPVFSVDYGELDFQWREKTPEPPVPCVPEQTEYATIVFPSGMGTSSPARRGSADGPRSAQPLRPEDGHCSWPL

EC50 [2]	Kd [3]	Kd [4]	Kd [5]	Binder	other results
–	–	–	–	APE12890 (3.7C6 anti-PD-1 antibody, CHO-S) (antibody, human IgG1, kappa, V domains shown) VH: QVQLVQSGSELKKPGASVKVSCKASNYTFTDYSMHWVRQAPGQGLEWMGWINIETYYPTYADQFKGRFAFSLDTSVSTAYLQISSLKAEDTAVYYCARDYYGRFYYAMDYWGQGTTVTVSS VL: EIVLTQSPATLSLSPGERATLSCTASSSVSSSYFHWYQQKPGQAPRLLIYSTSNLASGIPARFSGSGSGTDFTLTISRLEPEDFAVYYCHQYHRSPLTFGGGTKVEIKR	median IC50 for IFN-γ inhibition, human whole blood tetanus toxoid recall assay [1]: 0.053 nM; median IC50 for IL-17A inhibition, human whole blood tetanus toxoid recall assay [1]: 0.097 nM
7.99 nM and 6.17 nM and 7.47 nM	0.45 nM	0.244 nM	–	APE12095 (3.7C6 anti-PD-1 antibody, ExpiCHO-S transient) (antibody, V domains shown, detected with anti-human kappa; Only variable regions are tied to APE12095; suffixes are lots; also called APE12095.03; APE12095.04) VH: QVQLVQSGSELKKPGASVKVSCKASNYTFTDYSMHWVRQAPGQGLEWMGWINIETYYPTYADQFKGRFAFSLDTSVSTAYLQISSLKAEDTAVYYCARDYYGRFYYAMDYWGQGTTVTVSS VL: EIVLTQSPATLSLSPGERATLSCTASSSVSSSYFHWYQQKPGQAPRLLIYSTSNLASGIPARFSGSGSGTDFTLTISRLEPEDFAVYYCHQYHRSPLTFGGGTKVEIKR	–
–	–	0.445 nM	0.64 nM	APE12537 (3.7C6 anti-PD-1 antibody, CHO-S sorted stable pool) (antibody, human IgG1, kappa, V domains shown, also called APE12537.01) VH: QVQLVQSGSELKKPGASVKVSCKASNYTFTDYSMHWVRQAPGQGLEWMGWINIETYYPTYADQFKGRFAFSLDTSVSTAYLQISSLKAEDTAVYYCARDYYGRFYYAMDYWGQGTTVTVSS VL: EIVLTQSPATLSLSPGERATLSCTASSSVSSSYFHWYQQKPGQAPRLLIYSTSNLASGIPARFSGSGSGTDFTLTISRLEPEDFAVYYCHQYHRSPLTFGGGTKVEIKR	–
–	–	–	1.02 nM	030-13263/030-13264 (CDR-grafted) (antibody, V domains shown, CDR-grafted forerunner of APE12537; APE12537 differs from it by A52aI and D62Q (Kabat) in the heavy chain) VH: QVQLVQSGSELKKPGASVKVSCKASNYTFTDYSMHWVRQAPGQGLEWMGWINAETYYPTYADDFKGRFAFSLDTSVSTAYLQISSLKAEDTAVYYCARDYYGRFYYAMDYWGQGTTVTVSS VL: EIVLTQSPATLSLSPGERATLSCTASSSVSSSYFHWYQQKPGQAPRLLIYSTSNLASGIPARFSGSGSGTDFTLTISRLEPEDFAVYYCHQYHRSPLTFGGGTKVEIKR	–
3.69 nM and 2.69 nM and 2.59 nM	0.21 nM	0.09 nM	–	APE12043 (437M5-112 anti-PD-1 antibody, ExpiCHO-S transient) (antibody, V domains shown, detected with anti-human kappa; Only variable regions are tied to APE12043; the suffixes .02 to .05 are lots; also called APE12043.02; APE12043.03) VH: QVQLVQSGAEVKKPGASVKVSCKASGYTFTSYSMHWVRQAPGQGLEWMGYINPSSGFTNYIQKFRDRVTMTADKSSSTAYMELSRLRSDDTAVYYCARDYYGRYYYVMDYWGQGTTVTVSS VL: DIQMTQSPSSLSASVGDRVTITCTASSSVSSSFLHWYQQKPGKAPKLLIYSTSDLASGVPSRFSGSGSGTDFTLTISSLQPEDFATYYCHQYHRSPLTFGGGTKVEIKR	EC50 [6]: 2.99 nM and 3.06 nM; Kd [7]: 0.031 nM
–	–	0.217 nM	–	APE12538 (437M5-112 anti-PD-1 antibody, CHO-S sorted stable pool) (antibody, human IgG1, kappa, V domains shown, also called APE12538.01) VH: QVQLVQSGAEVKKPGASVKVSCKASGYTFTSYSMHWVRQAPGQGLEWMGYINPSSGFTNYIQKFRDRVTMTADKSSSTAYMELSRLRSDDTAVYYCARDYYGRYYYVMDYWGQGTTVTVSS VL: DIQMTQSPSSLSASVGDRVTITCTASSSVSSSFLHWYQQKPGKAPKLLIYSTSDLASGVPSRFSGSGSGTDFTLTISSLQPEDFATYYCHQYHRSPLTFGGGTKVEIKR	–
